Data reported in US10357539B2, “Use of peptides that block metadherin-SND1 interaction as treatment for cancer” (THE TRUSTEES OF PRINCETON UNIVERSITY, priority 2014, dated 2019).
Residue numbers refer to the chain shown, from its start. Names and notes keep the numbering of the source.

Tests used:
PyMT;Mtdh−/− pMECs = assay: CPT-induced apoptosis of MECs (PI and Hoechst staining); type: cell-based, mouse; settings: CPT to induce DNA replication stress
Description: (§1) FIGS. 9A-I illustrates that MTDH confers survival advantage by interacting with and stabilizing pro-survival protein SND1 under stress. (FIG. 9A) Quantification of cleaved caspase 3-positive MECs from normal or MMTV-PyMT preneoplastic glands (n>3) of WT (left column) or KO females (right column). (FIG. 9B) The effect of CPT on the apoptosis of PyMT;Mtdh−/− pMECs reconstituted with indicated Mtdh constructs (left column: VEC; middle column: WT; right column: W391D) was determined by PI and Hoechst staining. (FIG. 9C) The effect of CPT on the apoptosis of control (left column) or SND1-KD (right column) PyMT;Mtdh+/+ pMECs. (FIG. 9D) Protein levels of SND1 and β-actin (loading control) in control or MTDH-KD PyMT;Mtdh+/+ pMECs treated with CPT at indicated concentrations for 36 hours. Degradation curve (right) represents the average of 3 independent experiments. (FIG. 9E) Western blotting of SND1, MTDH and β-actin (loading control) in PyMT;Mtdh−/− MECs reconstituted with indicated constructs after CPT treatment for 48 hours. Degradation curves (right) represent average of 3 independent experiments. […] Z scores were calculated based on gene expression changes and gene functions as specified by the ingenuity knowledge base. […]

SND1 [1] = assay: SND1 protein levels in MECs treated with CPT (western blot); type: cell-based, mouse; settings: PyMT;Mtdh+/+ pMECs, CPT at indicated concentrations for 36 hours
Description: as §1

SND1 [2] = target: T1, SND1 (Homo sapiens, UniProt Q7KZF4); assay: GST-mediated pull-down of SND1 by GST-tagged MTDH fragments and mutants; type: binding; settings: His6-SND1ΔC (1-339); Coomassie blue staining
T1 construct: 15 μg of His-SND1 (16-339) was added to the resin; made in house; host or cells: E. coli DH5α
T1 sequence (Q7KZF4 1-339): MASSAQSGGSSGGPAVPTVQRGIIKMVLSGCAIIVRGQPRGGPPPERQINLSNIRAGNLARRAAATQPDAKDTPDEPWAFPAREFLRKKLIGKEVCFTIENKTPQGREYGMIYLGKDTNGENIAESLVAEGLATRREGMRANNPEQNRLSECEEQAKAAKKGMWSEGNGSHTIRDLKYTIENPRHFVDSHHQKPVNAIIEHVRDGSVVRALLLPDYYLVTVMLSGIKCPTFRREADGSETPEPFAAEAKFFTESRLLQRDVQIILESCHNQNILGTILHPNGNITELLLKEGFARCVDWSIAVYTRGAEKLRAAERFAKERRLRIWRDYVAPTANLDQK
Summary of the method: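 GST-MTDH fragments or mutants (~20 μg) on glutathione resin incubated with 15 μg His-SND1 (16-339) in 25 mM Tris pH 8.0, 150 mM NaCl, 3 mM DTT plus 2 mg/ml BSA. Bound protein resolved by SDS-PAGE, Coomassie-stained; bound SND1 ratio quantified by densitometry over 3 repeats.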

SND1 [3] = target: T2, SND1 (Homo sapiens, UniProt Q7KZF4); assay: Co-immunoprecipitation of full-length Myc-MTDH (WT or mutant) and HA-SND1 in HEK293T cells; type: cell-based; settings: HEK293T cell lysates, immunoprecipitation and immunoblot
T2 construct: Full-length HA-tagged SND1 was co-expressed with full-length Myc-tagged wild-type (WT) or mutant MTDH in HEK293T cells; expressed in transfected cells; host or cells: HEK293T
T2 sequence (Q7KZF4 1-910): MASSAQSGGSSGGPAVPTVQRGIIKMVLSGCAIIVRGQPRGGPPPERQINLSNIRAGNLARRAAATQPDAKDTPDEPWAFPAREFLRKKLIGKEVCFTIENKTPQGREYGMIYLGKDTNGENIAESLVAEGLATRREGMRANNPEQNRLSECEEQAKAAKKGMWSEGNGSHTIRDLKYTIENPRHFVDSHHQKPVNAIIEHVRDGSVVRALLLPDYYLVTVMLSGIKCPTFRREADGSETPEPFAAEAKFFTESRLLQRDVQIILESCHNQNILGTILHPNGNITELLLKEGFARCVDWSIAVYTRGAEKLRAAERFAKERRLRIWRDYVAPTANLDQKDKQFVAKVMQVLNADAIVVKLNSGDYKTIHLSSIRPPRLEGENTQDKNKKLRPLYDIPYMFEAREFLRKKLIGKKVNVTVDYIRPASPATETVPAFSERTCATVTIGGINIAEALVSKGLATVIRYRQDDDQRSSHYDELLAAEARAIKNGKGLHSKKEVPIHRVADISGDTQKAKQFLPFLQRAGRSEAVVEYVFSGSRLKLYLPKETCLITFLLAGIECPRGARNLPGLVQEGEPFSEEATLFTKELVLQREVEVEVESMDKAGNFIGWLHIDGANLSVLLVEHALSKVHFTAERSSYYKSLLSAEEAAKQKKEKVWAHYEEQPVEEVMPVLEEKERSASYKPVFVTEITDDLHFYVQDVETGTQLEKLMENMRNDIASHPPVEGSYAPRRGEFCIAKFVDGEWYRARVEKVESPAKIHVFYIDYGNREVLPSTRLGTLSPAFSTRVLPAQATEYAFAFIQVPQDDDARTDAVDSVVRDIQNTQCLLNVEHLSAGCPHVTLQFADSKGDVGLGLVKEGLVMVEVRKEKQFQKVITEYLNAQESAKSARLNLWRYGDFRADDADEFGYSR

AGO2 = target: T3, AGO2 (Homo sapiens, UniProt Q9UKV8); assay: Co-immunoprecipitation of Myc-MTDH mutants with AGO2 in HEK293T cells; type: cell-based; settings: HEK293T cell lysates, anti-Myc immunoprecipitation
T3 construct: expressed in transfected cells; host or cells: HEK293T
T3 sequence (Q9UKV8 whole entry): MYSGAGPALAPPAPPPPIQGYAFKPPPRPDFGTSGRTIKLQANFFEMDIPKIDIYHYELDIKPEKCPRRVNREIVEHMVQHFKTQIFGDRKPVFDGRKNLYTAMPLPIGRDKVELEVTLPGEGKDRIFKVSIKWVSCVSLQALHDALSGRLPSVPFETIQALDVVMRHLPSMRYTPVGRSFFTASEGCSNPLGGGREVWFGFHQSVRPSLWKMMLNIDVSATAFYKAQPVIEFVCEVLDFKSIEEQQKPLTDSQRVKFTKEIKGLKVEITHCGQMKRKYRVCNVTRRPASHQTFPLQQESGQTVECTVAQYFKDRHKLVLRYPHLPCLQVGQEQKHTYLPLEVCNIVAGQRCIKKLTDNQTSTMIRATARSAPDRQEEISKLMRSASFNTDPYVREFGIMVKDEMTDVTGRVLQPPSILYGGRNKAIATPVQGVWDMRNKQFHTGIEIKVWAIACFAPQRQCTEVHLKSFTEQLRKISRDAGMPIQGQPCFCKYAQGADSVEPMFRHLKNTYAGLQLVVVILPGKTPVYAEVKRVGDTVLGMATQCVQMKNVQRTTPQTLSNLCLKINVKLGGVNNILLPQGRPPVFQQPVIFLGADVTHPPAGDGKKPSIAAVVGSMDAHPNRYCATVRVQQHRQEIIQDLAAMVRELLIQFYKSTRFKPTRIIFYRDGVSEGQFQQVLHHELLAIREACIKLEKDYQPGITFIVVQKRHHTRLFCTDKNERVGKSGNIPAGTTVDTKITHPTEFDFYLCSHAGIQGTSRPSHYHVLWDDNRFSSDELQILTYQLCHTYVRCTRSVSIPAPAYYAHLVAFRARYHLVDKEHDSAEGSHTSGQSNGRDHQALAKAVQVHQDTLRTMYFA
Text: FIGS. 7A-E represents determination of key regions and residues mediating the MTDH-SND1 interaction. (FIG. 7A) Schematics of MTDH fragments and mutants with indicated SND1-binding capability. + indicates binding and − indicates no binding based on results shown below. Two putative nuclear localization signals are residues 432-451 for NLS2 and residues 561-580 for NLS3. In the enlarged view of the minimal binding region 386-407, 9 residues were targeted for mutagenesis in the current study. […] (FIG. 7B) Pulldown of His6-SND1AC by GST-tagged MTDH fragments with indicated boundaries. The bound proteins were examined by SDS-PAGE and visualized by Coomassie blue staining. (FIG. 7C) Pulldown of His6-SND1ΔC by GST-tagged WT or triple mutant MTDH fragments (364-582). For (FIG. 7B) and (FIG. 7C), 1/10 of the His6-SND1ΔC input was shown, and GST alone was used as a negative control. Representative results of 3 independent experiments are shown. (FIG. 7D, FIG. 7E) Lysates from HEK293T cells expressing the indicated ectopic human SND1, AGO2 or MTDH were immunoprecipitated with anti-Myc and immunoblotted with the indicated antibodies. […]

CC[C@@]1(O)C(=O)OCc2c1cc1n(c2=O)Cc2cc3ccccc3nc2-1 [CPT, camptothecin]
apoptosis of MECs (PyMT;Mtdh−/− pMECs): induced apoptosis of MECs in a dosage-dependent manner | SND1 protein levels (SND1 [1]): drug dosage-dependent decrease of SND1 protein levels

B1: TPM1: MTDH triple-point mutant D389R, D393R and W394D (protein)
chain: YQWDVSRNQPYIDDEWSGLNGLSSARPNSRDNAPAEEWGNWVDEERASLLKSQEPIPDDQKVSDDDKEKGEGALPTGKSKKKKKKKKKQGEDNSTAQDTEELEKEIREDLPVNTSKTRPKQEKAFSLKTISTSDPAEVLVKNSQPIKTLPPATSTEPSVILSKSDSDKSSSQVPPILQETDKSKSNTKQNSVPPSQTKSETSWESPKQIKKKKKARRET
modifications: left off: a dimerising Fc or GST
notes: MTDH triple-point mutant D389R, D393R and W394D
SND1-binding of MTDH fragments and triple mutants, in vitro (SND1 [2]): could not bind | interaction of full-length MTDH (WT or mutant) with HA-SND1 (SND1 [3]): not | interaction of MTDH mutants with AGO2 (AGO2): still able to interact with AGO2

B2: TPM2: MTDH triple-point mutant E399R, E400R and W401D (protein)
chain: B1 chain with R26D, R30D, D31W, E36R, E37R, W38D
modifications: left off: a dimerising Fc or GST
notes: MTDH triple-point mutant E399R, E400R and W401D
SND1-binding of MTDH fragments and triple mutants, in vitro (SND1 [2]): could not bind | interaction of full-length MTDH (WT or mutant) with HA-SND1 (SND1 [3]): not | interaction of MTDH mutants with AGO2 (AGO2): still able to interact with AGO2
